Data on one substance can be found in paper PMC2443151.

In assay [1] the target is PLA2 (phospholipase A2) from Crotalus durissus cascavella rattlesnake venom (Crotalus durissus cascavella).
Assay [2] shares this target. The source holds these as a separate data set.

“BTL-2, isolectin from the red marine alga Bryothamnion triquetrum (natural protein)” had an enzymatic activity of PLA2 on 4-nitro-3-octanoyloxy-benzoic acid after incubation with BTL-2; increase against PLA2 alone in assay [1] of 23%. For the same substance, the aggregation of washed human platelets induced by PLA2 after 30 min incubation with BTL-2, at 1 μg and 3 μg (72.7% and 48.8%), compared to PLA2 alone in assay [2] worked out at 72.7%.
